Patent US20210138090A1, “uPAR targeting peptide for use in peroperative optical imaging of invasive cancer” (FLUOGUIDE A/S, priority 2014, published 2021)
Square brackets hold non-standard residues; d marks the D form. Peptide text beside a SMILES is read from it. * marks the point of attachment. IRDye800CW = CC1(C)C(/C=C/C2=C(Oc3ccc(S(=O)(=O)O)cc3)C(=C/C=C3/N(CCCCS(=O)(=O)O)c4ccc(S(=O)(=O)O)cc4C3(C)C)/CCC2)=[N+](CCCCCC(=O)*)c2ccc(S(=O)(=O)[O-])cc21; Cha = N[C@@H](CC1CCCCC1)C(=O)O; AEEA = NCCOCCOCC(=O)O

What was measured:
[1] = biodistribution by organ fluorescence imaging; type: in vivo, mice; settings: 3 nmol, 1 h
Text: […] Due to renal excretion, the fluorescence signal in the kidneys were out of scale compared to all the other organs. […] The skin was imaged partially (1.25 g) and the biodistribution was extrapolated with respect to the full weight of the skin (4.9 g).

[2] = acute toxicity: liver and kidney histology; type: in vivo, mice; settings: 3 nmol, 1 h post injection
Text: Liver and kidneys: Tissue was formalin fixed and paraffin embedded. Sections of 2-4 um thick were cut and a routine staining panel applied including: H&E, modified sirius, PAS and Masson trichome for both and additional PAS with silver for kidneys and PAS with diastase, iron, reticulin artisan and oxidised orcein for the livers. Livers were immunohistochemically stained, immunohistochemical evaluation on 3 μm thick sections was done using the CK7 antibody from Dako/Agilent, GA619 (clone OV-TL12/30) following the manufacturer's instructions. The staining took place on the Omnis from Agilent utilizing the EnVision Flex+ detection kit (GV800). The primary antibody was diluted using Antibody Diluent (Dako DM830) and were incubated for 20 minutes. The sections were counterstained with hematoxylin.

[3] = photostability under continuous laser exposure; type: physicochemical
Experimental: The photostability was evaluated by a factor 2 dilution series with four samples from 0.23-1.8 nM IRDye800-AE344 in 100 μL phosphate buffered saline (PBS) placed in a black 96-well plate. The well was placed in a black box with the Fluobeam mounted in the top at a distance of 23 cm from the well plate. Image acquisition was performed at 0 min, 10 min, 15 min, 20 min, 0.5 h, 1 h, 2 h, 3 h, 6 h, 10 h, 15 h, 24 h. Each dilution sample was normalized to time point 0 and the data from all four samples were pooled.

[4] = vis/NIR spectral properties; type: physicochemical
Experimental: Fluorophore excitation and emission profiles were obtained with PTI QuantaMaster 400 (Horiba Ltd., Japan). Excitation profile was measured at λemission=850 nm and the emission profile were measured at λexcitation=740 nm with xenon arc lamps as excitation source. Absorption was measured on a Cary 300 UV-Vis (Agilent, Santa Clara, Calif., USA).

CC(C)C[C@H](NC(=O)[C@H](Cc1ccc(O)cc1)NC(=O)[C@@H](CCCNC(=N)N)NC(=O)[C@@H](CO)NC(=O)[C@H](Cc1ccccc1)NC(=O)[C@H](CC1CCCCC1)NC(=O)[C@H](CC(=O)O)NC(=O)COCCOCCNC(=O)COCCOCCNC(=O)[C@H](CCC(=O)O)NC(=O)[C@H](CCC(=O)O)NC(=O)CCCCC[N+]1=C(/C=C/C2=C(Oc3ccc(S(=O)(=O)O)cc3)C(=C/C=C3/N(CCCCS(=O)(=O)O)c4ccc(S(=O)(=O)O)cc4C3(C)C)/CCC2)C(C)(C)c2cc(S(=O)(=O)[O-])ccc21)C(=O)N[C@@H](Cc1c[nH]c2ccccc12)C(=O)N[C@@H](CO)C(=O)O [IRDye800CW-AE344, IRDye800-Glu-Glu-O2Oc-O2Oc-Asp-Cha-Phe-D-ser-D-arg-Tyr-Leu-Trp-Ser-OH] (IRDye800CW-EE[AEEA][AEEA]D[Cha]F[dS][dR]YLWS-OH)
MFI brain ([1]; 333 ms exposure): 19 a.u. | MFI liver ([1]; 333 ms exposure): 88 a.u. | MFI lungs ([1]; 333 ms exposure): 101 a.u. | MFI skin ([1]; 333 ms exposure): 99 a.u. | MFI tumor ([1]; 333 ms exposure): 65 a.u. | normalized uptake brain ([1]; normalized to skin=100): 0.7 | normalized uptake colon ([1]; normalized to skin=100): 4.0 | normalized uptake heart ([1]; normalized to skin=100): 0.4 | normalized uptake kidneys ([1]; normalized to skin=100): 38.8 | normalized uptake liver ([1]; normalized to skin=100): 12.2 | normalized uptake lungs ([1]; normalized to skin=100): 4.2 | normalized uptake pancreas ([1]; normalized to skin=100): 3.4 | normalized uptake small intestine ([1]; normalized to skin=100): 11.2 | normalized uptake spleen ([1]; normalized to skin=100): 0.4 | normalized uptake tumor ([1]; normalized to skin=100): 0.1 | normalized uptake ventricle ([1]; normalized to skin=100): 0.9 | normalized uptake skin ([1]; skin = reference): 100 | MFI kidneys ([1]; extrapolated from 40 ms exposure): 1,236 a.u. | kidney histology (H&E stained) [2]: normal | liver histology (H&E stained) [2]: normal | preserved fluorescence intensity (photostability) ([3]; continuous laser exposure for 1 h): 84% | preserved fluorescence intensity (photostability) ([3]; continuous laser exposure, after 2 h): 62% | Stokes shift [4]: 10 nm | absorption peak λabs,max [4]: 777 nm | excitation peak λexcitation,max [4]: 784 nm | peak emission λemission,max [4]: 794 nm
